# Assay results reported in the RNAGym collection of RNA variant scans (doi:10.1021/acssynbio.7b00057).
# B1: Pistol ribozyme (parent)
# chain: GGGUCGUUGUUCCAUAAUCGCGUGGAUAUGGCACGCAAGUUUCUACCGGGCACCGUAAAUGUCCGACUGGAGCCGUUCGGGCGGCUAUAAACAGACCUCAGGCCCGAAGCGUGGCGGCACCUGCCGCCGGUGGUAAAAAAGAUCGGAAGAGCACACGUCU
# Variants of: B1
# Assay: aptazyme ON/OFF ratio, guanine; higher = stronger switching; co-transcriptional cleavage with and without guanine
row,Variant,aptazyme ON/OFF ratio
1,U8G G9U U11A C12G C13A,1.13
2,U8G G9U U11A C12G C13G,1.23
3,U8G G9U U11A C12G C13U,1.18
4,U8G G9U U10G U11G C12G C13A,1.07
5,U8G G9U U10G U11G C12G C13G,1.17
6,U8G G9U U10G U11G C12G C13U,1.09
7,U8G U10C U11G C12U C13A,1.14
8,U8G U10C U11G C12U C13U,1.13
9,U8G U10C U11G C12U C13G,1.15
10,U8G U10A U11G C12U,1.23
11,U8G U10A U11G C12G,1.2
12,U8G U10A U11G C12A,1.12
13,U8G U10A U11A C13G,1.07
14,U8G U10A U11A C13A,1.2
15,U8G U10A U11A C13U,1.17
16,U8G U10C C12U,3.67
17,U8G U10C C12A,1.34
18,U8G U10C C12G,1.49
19,U8G U10C U11G C12A,1.35
20,U8G U10C U11G C12G,1.23
21,U8G U10C U11G C12U,1.33
22,U8G U10A U11A C12G,1.14
23,U8G U10A U11A C12A,1.12
24,U8G U10A U11A C12U,1.28

row,Variant,aptazyme ON/OFF ratio
1,U8G U10C U11C C12U,1.17
2,U8G U10C U11C C12G,1.21
3,U8G U10C U11C C12A,1.09
4,U8G U10A U11A,1.71
5,U8G U10A U11C,1.02
6,U8G U10A U11G,1.34
7,U8G G9U U11A C12A,1.42
8,U8G G9U U11A C12U,1.36
9,U8G G9U U11A C12G,1.25
10,U8G U10G U11G C12A C13U,1.18
11,U8G U10G U11G C12A C13A,1.08
12,U8G U10G U11G C12A C13G,1.05
13,U8G G9U U11G C12U C13A,1.13
14,U8G G9U U11G C12U C13G,1.1
15,U8G G9U U11G C12U C13U,1.16
16,U8G U10A U11A C12G C13G,1.21
17,U8G U10A U11A C12G C13U,1.07
18,U8G U10A U11A C12G C13A,1.12
19,U8G U10C U11C,1.19
20,U8G U10C U11A,1.89
21,U8G U10C U11G,1.75
22,U8G U11A C12A C13U,1.28
23,U8G U11A C12A C13A,1.18
24,U8G U11A C12A C13G,1.14

row,Variant,aptazyme ON/OFF ratio
1,U8G U11G C12A C13U,1.21
2,U8G U11G C12A C13G,1.17
3,U8G U11G C12A C13A,1.13
4,U8G U10C U11C C12U C13U,1.09
5,U8G U10C U11C C12U C13G,1.27
6,U8G U10C U11C C12U C13A,1.14
7,U8G U11A,3.01
8,U8G U11G,1.25
9,U8G U11C,2.46
10,U8G G9U U11A C12A C13U,1.1
11,U8G G9U U11A C12A C13A,1.18
12,U8G G9U U11A C12A C13G,1.22
13,U8G G9U U10G U11A C12A C13A,1.04
14,U8G G9U U10G U11A C12A C13U,1.03
15,U8G G9U U10G U11A C12A C13G,1.03
16,U8G U11C C12A,1.13
17,U8G U11C C12G,1.3
18,U8G U11C C12U,1.26
19,U8G U11A C12G C13G,1.09
20,U8G U11A C12G C13A,1.1
21,U8G U11A C12G C13U,1.09
22,U8G U10G U11C C12U C13A,1.06
23,U8G U10G U11C C12U C13G,1.14
24,U8G U10G U11C C12U C13U,1.04

row,Variant,aptazyme ON/OFF ratio
1,U8G G9U U10G U11G,1.07
2,U8G G9U U10G U11A,1.09
3,U8G G9U U10G U11C,1.02
4,U8G U11A C13U,1.33
5,U8G U11A C13G,1.11
6,U8G U11A C13A,1.24
7,U8G U10A U11C C12G C13G,1.33
8,U8G U10A U11C C12G C13U,1.33
9,U8G U10A U11C C12G C13A,1.13
10,U8G U10G U11C C12G C13U,1.13
11,U8G U10G U11C C12G C13A,1.11
12,U8G U10G U11C C12G C13G,1.1
13,U8G G9U U11G C13G,1.04
14,U8G G9U U11G C13U,1.05
15,U8G G9U U11G C13A,1.06
16,U8G U10C U11C C13A,1.03
17,U8G U10C U11C C13U,1.04
18,U8G U10C U11C C13G,1.03
19,U8G U10C C13U,1.15
20,U8G U10C C13G,1.04
21,U8G U10C C13A,1.05
22,U8G G9U U10G U11A C13G,1.04
23,U8G G9U U10G U11A C13U,1.03
24,U8G G9U U10G U11A C13A,1.01

row,Variant,aptazyme ON/OFF ratio
1,U8G U10A U11C C12A C13A,1.13
2,U8G U10A U11C C12A C13U,1.14
3,U8G U10A U11C C12A C13G,1.12
4,U8G G9U U11C,1.24
5,U8G G9U U11A,1.73
6,U8G G9U U11G,1.36
7,U8G U10G C12A C13A,1.26
8,U8G U10G C12A C13G,1.19
9,U8G U10G C12A C13U,1.17
10,U8G U10C C12U C13U,1.17
11,U8G U10C C12U C13A,1.05
12,U8G U10C C12U C13G,1.07
13,U8G U10C C12A C13U,1.14
14,U8G U10C C12A C13G,1.07
15,U8G U10C C12A C13A,1.09
16,U8G U10C U11G C12A C13U,1.2
17,U8G U10C U11G C12A C13A,1.16
18,U8G U10C U11G C12A C13G,1.13
19,U8G U10A U11A C12U C13G,1.17
20,U8G U10A U11A C12U C13U,1.14
21,U8G U10A U11A C12U C13A,1.3
22,U8G U10C,3.87
23,U8G U10A,1.15
24,U8G U10G,1.32

row,Variant,aptazyme ON/OFF ratio
1,U8G U10G U11A C12U,1.38
2,U8G U10G U11A C12A,1.18
3,U8G U10G U11A C12G,1.28
4,U8G G9U U11C C12U C13A,1.06
5,U8G G9U U11C C12U C13U,1.03
6,U8G G9U U11C C12U C13G,1.08
7,U8G U10C U11A C13A,1.15
8,U8G U10C U11A C13U,1.22
9,U8G U10C U11A C13G,1.05
10,U8G G9U U10G U11C C12G C13U,1.02
11,U8G G9U U10G U11C C12G C13A,1.04
12,U8G G9U U10G U11C C12G C13G,1.03
13,U8G U10A U11G C12U C13A,1.15
14,U8G U10A U11G C12U C13U,1.12
15,U8G U10A U11G C12U C13G,1.22
16,U8G U10G U11G C12G C13U,1.29
17,U8G U10G U11G C12G C13A,1.15
18,U8G U10G U11G C12G C13G,1.1
19,U8G G9U U11A C13U,1.25
20,U8G G9U U11A C13A,1.33
21,U8G G9U U11A C13G,1.06
22,U8G U10G C12A,1.39
23,U8G U10G C12U,1.15
24,U8G U10G C12G,1.3

row,Variant,aptazyme ON/OFF ratio
1,U8G U10G U11G C12A,1.09
2,U8G U10G U11G C12G,1.07
3,U8G U10G U11G C12U,1.44
4,U8G G9U U11G C12G C13U,1.22
5,U8G G9U U11G C12G C13G,1.36
6,U8G G9U U11G C12G C13A,1.21
7,U8G U10C C12G C13G,1.14
8,U8G U10C C12G C13A,1.13
9,U8G U10C C12G C13U,1.27
10,U8G G9U U10G U11G C13G,1.03
11,U8G G9U U10G U11G C13A,1.04
12,U8G G9U U10G U11G C13U,1.02
13,U8G U10A U11C C12U,1.03
14,U8G U10A U11C C12A,1.18
15,U8G U10A U11C C12G,1.21
16,U8G G9U U10G U11A C12U C13A,1.05
17,U8G G9U U10G U11A C12U C13U,1.06
18,U8G G9U U10G U11A C12U C13G,1.05
19,U8G U10A C12G C13A,1.16
20,U8G U10A C12G C13U,1.28
21,U8G U10A C12G C13G,1.14
22,U8G U10C U11A C12A C13U,1.24
23,U8G U10C U11A C12A C13A,1.16
